This is an account of results in patent publication US6451970B1, “Peptide derivatives” (Novo Nordisk A/S, priority 1996, dated 2002).

For one data set, the target named is porcine albumin (Sus scrofa, UniProt P08835). The experiment in a line: Binding to porcine albumin, in vitro assay. Particulars: relative to the reference compound EXA. How it is done: The binding to porcine albumin was determined in an in vitro assay. The values given in Table 1 under the heading “Albumin binding” are relative to the reference compound EXA.

The conditions of data set [1]: pig, in vivo, sc.
Text: Determination of Disappearance Half-life, T50%, from the Injection Site after Subcutaneous Injection of an Insulin Derivative in Pigs.
For data set [2] the following is noted: pH 7.3.
Experimental: The lipophilicity of the insulin derivatives relative to human insulin, k″rel, was measured on a LiChrosorb RP18 (5 μm, 250×4 mm) HPLC column by isocratic elution at 40° C. using mixtures of A) 0.1 M sodium phosphate buffer, pH 7.3, containing 10% acetonitrile, and B) 50% acetonitrile in water as eluents. The elution was monitored by following the UV absorption of the eluate at 214 nm. Void time, t0, was found by injecting 0.1 mM sodium nitrate. Retention time for human insulin, thuman, was adjusted to at least 2t0 by varying the ratio between the A and B solutions. k′rel=(tderivative−t0)/(thuman−t0).

porcine albumin, sequence (P08835 25-607): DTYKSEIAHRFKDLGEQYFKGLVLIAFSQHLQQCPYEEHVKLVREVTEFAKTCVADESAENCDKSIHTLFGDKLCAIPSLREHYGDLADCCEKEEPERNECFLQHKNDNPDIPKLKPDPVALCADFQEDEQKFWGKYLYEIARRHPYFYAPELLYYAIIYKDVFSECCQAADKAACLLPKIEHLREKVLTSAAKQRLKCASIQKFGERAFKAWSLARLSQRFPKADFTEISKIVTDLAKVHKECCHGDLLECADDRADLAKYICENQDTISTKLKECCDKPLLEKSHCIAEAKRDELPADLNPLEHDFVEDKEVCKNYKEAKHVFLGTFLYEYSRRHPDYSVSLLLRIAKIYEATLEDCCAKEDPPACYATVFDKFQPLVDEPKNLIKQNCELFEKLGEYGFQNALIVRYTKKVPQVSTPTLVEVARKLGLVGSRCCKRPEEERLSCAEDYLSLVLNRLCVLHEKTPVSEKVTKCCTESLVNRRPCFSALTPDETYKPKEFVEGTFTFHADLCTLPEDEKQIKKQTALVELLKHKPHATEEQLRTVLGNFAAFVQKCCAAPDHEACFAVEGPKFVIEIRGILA

Substance “N^εB29-(CO—(CH2)14—COOH) des(B30) Human Insulin [EX2]” returned an Albumin binding at porcine albumin of 5. Moreover, in data set [1], the “T50%” value came to 10 h. Moreover, in data set [2], the Lipophilicity was 2.3.
For “N^εB29-(CO—(CH2)16—COOH) des(B30) Human Insulin [EX4]” the same measures were 36, 17.1 h and 7.2.
For “N^εB29-(CO—(CH2)18—COOH) des(B30) Human Insulin [EX3]” the same measures were 51, 18 h and 17.
At porcine albumin, “N^εB29-(CO—(CH)12—COOH) des(B30) human insulin [EX1]” gave an Albumin binding of 0.7. For the same substance, the “T50%” value in data set [1] was 5 h. Moreover, the Lipophilicity in data set [2] came out at 1.4.
As to “N^εB29-hexadecanoyl desB30 insulin [EXB, reference compound]”, the Albumin binding on porcine albumin is recorded as 0.9. In data set [1], the “T50%” value worked out at 12 h. For the same substance, the Lipophilicity in data set [2] is on record as 346.
As to “N^εB29-tetradecanoyl desB30 insulin [EXA, reference compound]”, at porcine albumin, the Albumin binding worked out at 1. The “T50%” value in data set [1] worked out at 14 h. The same substance showed a Lipophilicity in data set [2] of 113.
